Assay [1] has as its target Recombinant SARS-CoV-2 spike (S) protein (SARS-CoV-2) (UniProt P0DTC2).
Assay [2] shares this target. This is another data set of the same source.

Data on two substances can be found in article PMC12395051.

For the substance “Human complement factor H (from UniProt P08603 19-1231) (natural protein)”, the cell binding assay: binding of SARS-CoV-2 S lentiviral pseudoparticles pre-treated with FH (20 ug/ml) to A549-hACE2+TMPRSS2 cells, decrease against untreated pseudoparticles in assay [1] was determined as 35%. Further, in assay [2], the luciferase reporter activity: entry of SARS-CoV-2 S lentiviral pseudoparticles pre-treated with FH (20 ug/ml) into A549-hACE2+TMPRSS2 cells, reduction against untreated pseudoparticles was 25%.

In the case of “Human native properdin (from UniProt P27918 28-469) (natural protein)”, the cell binding assay: binding of SARS-CoV-2 S lentiviral pseudoparticles pre-treated with FP (20 ug/ml) to A549-hACE2+TMPRSS2 cells, increase against untreated pseudoparticles in assay [1] came to 30%. In addition, the luciferase reporter activity: entry of SARS-CoV-2 S lentiviral pseudoparticles pre-treated with FP (20 ug/ml) into A549-hACE2+TMPRSS2 cells, increase against untreated pseudoparticles in assay [2] was found to be 80%.
